Laboratory results reported in PMC11790868.
Values joined by “and” are separate entries in the source; they are usually repeats but may differ in a detail not shown here. Equal entries are not always repeated.

Experiments:
H3K18DTU nucleosome = H3K18DTU nucleosome (UniProt P0C0S8); assay: native gel or EMSA; nucleosomes 100 nM, NAD+ 0 or 150 uM, SIRT7 0-1.6 uM; 10 mM Tris-HCl, 50 mM KCl, 1 mM DTT, pH 7.5; 25 °C, 30 min; 5% TBE native gel run on ice, GelRed
H3K36MTU nucleosome = H3K36MTU nucleosome (UniProt P0C0S8); assay: as above

- stoichiometry N (SIRT7 per nucleosome) (H3K18DTU nucleosome): 1 and 2
- stoichiometry N (SIRT7 per nucleosome) (H3K36MTU nucleosome): 1 and 2
Substance: SIRT7 (wild type, full length) (from UniProt Q9NRC8 1-400) (enzyme)
